Measurements: publication PMC12582121

Target: glyceraldehyde-3-phosphate dehydrogenase (GAPDH) (human) (UniProt P04406)
Assay: mass photometry; recombinant GAPDH without RNA; 100 nM GAPDH in binding buffer (10 mM Tris-HCl pH 8.0, 50 mM KCl, 2 mM DTT, 0.5 mM EDTA), 25 min at room temperature, diluted 1:10 for measurement; TwoMP mass photometer; monomer and tetramer peaks seen

glyceraldehyde-3-phosphate dehydrogenase (GAPDH), P04406 1-335 (enzyme; other documents disagree on this pair), sequence (P04406 whole entry): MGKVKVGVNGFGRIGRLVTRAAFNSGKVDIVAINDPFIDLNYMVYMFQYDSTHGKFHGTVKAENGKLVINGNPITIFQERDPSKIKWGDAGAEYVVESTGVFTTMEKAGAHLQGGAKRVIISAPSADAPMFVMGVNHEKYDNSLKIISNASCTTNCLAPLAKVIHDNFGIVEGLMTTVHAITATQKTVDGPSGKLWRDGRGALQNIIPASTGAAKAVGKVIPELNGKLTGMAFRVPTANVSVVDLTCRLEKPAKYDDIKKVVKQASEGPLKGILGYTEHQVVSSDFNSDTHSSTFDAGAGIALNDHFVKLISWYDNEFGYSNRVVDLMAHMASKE

- stoichiometry N: 4
Substance: glyceraldehyde-3-phosphate dehydrogenase (GAPDH), P04406 1-335 (enzyme; other documents disagree on this pair)
